The values below come from publication PMC3388541.

Common to all, as to conditions: remark: other sources report otherwise
Test [1] concerns the target T1, ScHSP26 (Saccharomyces cerevisiae), P15992.
T1 chain: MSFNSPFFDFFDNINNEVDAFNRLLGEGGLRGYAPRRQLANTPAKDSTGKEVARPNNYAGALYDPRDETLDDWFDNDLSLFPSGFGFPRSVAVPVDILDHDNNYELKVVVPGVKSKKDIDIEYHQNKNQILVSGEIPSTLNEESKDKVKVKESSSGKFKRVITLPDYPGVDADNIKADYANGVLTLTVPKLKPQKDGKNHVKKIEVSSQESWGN
Nature of the test: native MS.

The target in test [2] is T1, ScHSP26 (Saccharomyces cerevisiae), …. Nature of the test: native MS.
For test [3] the target is unchanged. Nature of the test: native MS.
For test [4] the target is unchanged. Kind of test: native MS.
Test [5] shares this target. Kind of test: SEC-MALS. Background: Size exclusion chromatography separates by hydrodynamic size, large species first.
Test [6] has the same target. Kind of test: native MS.
The target is the same in test [7]. Kind of test: native MS.
Test [8] shares this target. Nature of the test: native MS.

B1: ScHSP26, P15992 1-214 (natural protein)
chain: MSFNSPFFDFFDNINNEVDAFNRLLGEGGLRGYAPRRQLANTPAKDSTGKEVARPNNYAGALYDPRDETLDDWFDNDLSLFPSGFGFPRSVAVPVDILDHDNNYELKVVVPGVKSKKDIDIEYHQNKNQILVSGEIPSTLNEESKDKVKVKESSSGKFKRVITLPDYPGVDADNIKADYANGVLTLTVPKLKPQKDGKNHVKKIEVSSQESWGN
A word on the stoichiometry N: it is a count of units in the complex or per binding partner. In the case of B1, the stoichiometry N in test [1] is 40 subunits; in test [2], 2 subunits; in test [3], 2 subunits; in test [4], 32 to 42 subunits; in test [5], 34 subunits; in test [6] it was 40 subunits. For the same molecule, the results for the stoichiometry N in test [7] and in test [8] were 24 to 42 subunits and 2 subunits, respectively.
